Experimental findings from the MegaScale stability set (Tsuboyama et al. 2023) are described below.

B1: 1ZHC (parent)
chain: HEFRDEISVLKANNPHFDKIFEKHNQLDDDIKTAEQQNASDAEVSHMKKQKLKLKDEIHSMIIEYREK

This data set covers variants of B1. The experiment in a line: folding stability dG (cDNA display proteolysis); higher = more stable. The settings on record: PBS, room temperature.
In the case of HEFRDEISVLKANNPHFDKIFEKHNQLDDDIKTAEQQNASDAEVSHMKKQKLKLKDEIHSLIIEYREK, the “folding stability dG” value worked out at 0.762 kcal/mol. HEFRDEISVLKANNPHFDKIFEKHNQLDDDIKTAEQQNASDAEVSHMKKQKLKLKDEIHSYIIEYREK: the “folding stability dG” value was 0.306 kcal/mol.

Turning to HEFRDEISVLKANNPHFDKIFEKHNQLDDDIKTAEQQNASDAEVSHMKKQKLKLKDEIHSIIIEYREK, the “folding stability dG” value turned out to be 0.447 kcal/mol. As for HEFRDEISVLKANNPHFDKIFEKHNQLDDDIKTAEQQNASDAEVSHMKKQKLKLKDEIHSWIIEYREK, the figure is -0.462 kcal/mol. With HEFRDEISVLKANNPHFDKIFEKHNQLDDDIKTAEQQNASDAEVSHMKKQKLKLKDEIHSMMIEYREK, the “folding stability dG” value is 0.117 kcal/mol.

For HEFRDEISVLKANNPHFDKIFEKHNQLDDDIKTAEQQNASDAEVSHMKKQKLKLKDEIHSMCIEYREK, the “folding stability dG” value is -0.713 kcal/mol. As for HEFRDEISVLKANNPHFDKIFEKHNQLDDDIKTAEQQNASDAEVSHMKKQKLKLKDEIHSMWIEYREK, the figure is -0.3 kcal/mol; as for HEFRDEISVLKANNPHFDKIFEKHNQLDDDIKTAEQQNASDAEVSHMKKQKLKLKDEIHSMLIEYREK, 0.874 kcal/mol; as for HEFRDEISVLKANNPHFDKIFEKHNQLDDDIKTAEQQNASDAEVSHMKKQKLKLKDEIHSMFIEYREK, 0.011 kcal/mol. With HEFRDEISVLKANNPHFDKIFEKHNQLDDDIKTAEQQNASDAEVSHMKKQKLKLKDEIHSMHIEYREK, the “folding stability dG” value was -0.624 kcal/mol.

As for HEFRDEISVLKANNPHFDKIFEKHNQLDDDIKTAEQQNASDAEVSHMKKQKLKLKDEIHSMVIEYREK, the “folding stability dG” value stood at 0.282 kcal/mol.

Turning to HEFRDEISVLKANNPHFDKIFEKHNQLDDDIKTAEQQNASDAEVSHMKKQKLKLKDEIHSMIIEYRCK, the “folding stability dG” value amounted to 1.33 kcal/mol. As for HEFRDEISVLKANNPHFDKIFEKHNQLDDDIKTAEQQNASDAEVSHMKKQKLKLKDEIHSMIIEYRIK, the figure is 1.07 kcal/mol; as for HEFRDEISVLKANNPHFDKIFEKHNQLDDDIKTAEQQNASDAEVSHMKKQKLKLKDEIHSMIIEYRGK, 0.605 kcal/mol.

As for HEFRDEISVLKANNPHFDKIFEKHNQLDDDIKTAEQQNASDAEVSHMKKQKLKLKDEIHSMIIEYRHK, the “folding stability dG” value was 1.04 kcal/mol. As for HEFRDEISVLKANNPHFDKIFEKHNQLDDDIKTAEQQNASDAEVSHMKKQKLKLKDEIHSMIIEYRDK, the figure is 0.551 kcal/mol; as for HEFRDEISVLKANNPHFDKIFEKHNQLDDDIKTAEQQNASDAEVSHMKKQKLKLKDEIHSMIIEYRAK, 1.08 kcal/mol.

Take HEFRDEISVLKANNPHFDKIFEKHNQLDDDIKTAEQQNASDAEVSHMKKQKLKLKDEIHSMIIEYRFK: the “folding stability dG” value stood at 0.916 kcal/mol. As for HEFRDEISVLKANNPHFDKIFEKHNQLDDDIKTAEQQNASDAEVSHMKKQKLKLKDEIHSMIIAYREK, the figure is 1.31 kcal/mol.

As to HEFRDEISVLKANNPHFDKIFEKHNQLDDDIKTAEQQNASDAEVSHMKKQKLKLKDEIHSMIITYREK, the “folding stability dG” value turned out to be 0.262 kcal/mol. As for HEFRDEISVLKANNPHFDKIFEKHNQLDDDIKTAEQQNASDAEVSHMKKQKLKLKDEIHSMIIIYREK, the figure is 0.119 kcal/mol; as for HEFRDEISVLKANNPHFDKIFEKHNQLDDDIKTAEQQNASDAEVSHMKKQKLKLKDEIHSMIIRYREK, 0.669 kcal/mol. As for HEFRDEISVLKANNPHFDKIFEKHNQLDDDIKTAEQQNASDAEVSHMKKQKLKLKDEIHSMIIMYREK, the figure is 0.766 kcal/mol; as for HEFRDEISVLKANNPHFDKIFEKHNQLDDDIKTAEQQNASDAEVSHMKKQKLKLKDEIHSMIIFYREK, 0.527 kcal/mol. With HEFRDEISVLKANNPHFDKIFEKHNQLDDDIKTAEQQNASDAEVSHMKKQKLKLKDEIHSMIIWYREK, the “folding stability dG” value amounted to 0.701 kcal/mol. As for HEFRDEISVLKANNPHFDKIFEKHNQLDDDIKTAEQQNASDAEVSHMKKQKLKLKDEIHSMIICYREK, the figure is 0.731 kcal/mol; as for HEFRDEISVLKANNPHFDKIFEKHNQLDDDIKTAEQQNASDAEVSHMKKQKLKLKDEIHSMIIQYREK, 0.969 kcal/mol. As for HEFRDEISVLKANNPHFDKIFEKHNQLDDDIKTAEQQNASDAEVSHMKKQKLKLKDEIHSMIISYREK, the figure is 0.735 kcal/mol; as for HEFRDEISVLKANNPHFDKIFEKHNQLDDDIKTAEQQNASDAEVSHMKKQKLKLKDEIHSMIINYREK, 0.583 kcal/mol. As for HEFRDEISVLKANNPHFDKIFEKHNQLDDDIKTAEQQNASDAEVSHMKKQKLKLKDEIHSMIIVYREK, the figure is -0.038 kcal/mol. As for HEFRDEISVLKANNPHFDKIFEKHNQLDDDIKTAEQQNASDAEVSHMKKQKLKLKDEIHSMIIHYREK, the “folding stability dG” value was 0.632 kcal/mol.

With HEFRDEISVLKANNPHFDKIFEKHNQLDDDIKTAEQQNASDAEVSHMKKQKLKLKDEIHSMIIKYREK, the “folding stability dG” value turned out to be 0.999 kcal/mol. As for HEFRDEISVLKANNPHFDKIFEKHNQLDDDIKTAEQQNASDAEVSHMKKQKLKLKDEIHSMIILYREK, the figure is 0.829 kcal/mol. As for HEFRDEISVLKANNPHFDKIFEKHNQLDDDIKTAEQQNASDAEVSHMKKQKLKLKDEIHSMIIGYREK, the figure is -0.85 kcal/mol. As for HEFRDEISVLKANNPHFDKIFEKHNQLDDDIKTAEQQNASDAEVSHMKKQKLKLKDEIHSMIIDYREK, the figure is 0.037 kcal/mol; as for HEFRDEISVLKANNPHFDKIFEKHNQLDDDIKTAEQQNASDAEVSHMKKQKLKLKDEIHSMIIYYREK, 0.484 kcal/mol; as for HEFRDEISVLKANNPHFDKIFEKHNQLDDDIKTAEQQNASDAEVSHMKKQKLKLKDEIHSMILEYREK, 1.24 kcal/mol. Turning to HEFRDEISVLKANNPHFDKIFEKHNQLDDDIKTAEQQNASDAEVSHMKKQKLKLKDEIHSMINEYREK, the “folding stability dG” value was 0.622 kcal/mol. As for HEFRDEISVLKANNPHFDKIFEKHNQLDDDIKTAEQQNASDAEVSHMKKQKLKLKDEIHSMIQEYREK, the figure is 1.12 kcal/mol; as for HEFRDEISVLKANNPHFDKIFEKHNQLDDDIKTAEQQNASDAEVSHMKKQKLKLKDEIHSMIWEYREK, -0.039 kcal/mol; as for HEFRDEISVLKANNPHFDKIFEKHNQLDDDIKTAEQQNASDAEVSHMKKQKLKLKDEIHSMIREYREK, 0.974 kcal/mol. Turning to HEFRDEISVLKANNPHFDKIFEKHNQLDDDIKTAEQQNASDAEVSHMKKQKLKLKDEIHSMIYEYREK, the “folding stability dG” value was found to be 0.129 kcal/mol. As for HEFRDEISVLKANNPHFDKIFEKHNQLDDDIKTAEQQNASDAEVSHMKKQKLKLKDEIHSMIAEYREK, the figure is 0.8 kcal/mol; as for HEFRDEISVLKANNPHFDKIFEKHNQLDDDIKTAEQQNASDAEVSHMKKQKLKLKDEIHSMIMEYREK, 1.4 kcal/mol.

For the variant HEFRDEISVLKANNPHFDKIFEKHNQLDDDIKTAEQQNASDAEVSHMKKQKLKLKDEIHSMIVEYREK, the “folding stability dG” value was found to be 0.61 kcal/mol. As for HEFRDEISVLKANNPHFDKIFEKHNQLDDDIKTAEQQNASDAEVSHMKKQKLKLKDEIHSMIEEYREK, the figure is 0.513 kcal/mol; as for HEFRDEISVLKANNPHFDKIFEKHNQLDDDIKTAEQQNASDAEVSHMKKQKLKLKDEIHSMITEYREK, 0.157 kcal/mol; as for HEFRDEISVLKANNPHFDKIFEKHNQLDDDIKTAEQQNASDAEVSHMKKQKLKLKDEIHSMISEYREK, 0.079 kcal/mol. As for HEFRDEISVLKANNPHFDKIFEKHNQLDDDIKTAEQQNASDAEVSHMKKQKLKLKDEIHSMICEYREK, the figure is 1.17 kcal/mol. As for HEFRDEISVLKANNPHFDKIFEKHNQLDDDIKTAEQQNASDAEVSHMKKQKLKLKDEIHSMIKEYREK, the figure is 0.899 kcal/mol; as for HEFRDEISVLKANNPHFDKIFEKHNQLDDDIKTAEQQNASDAEVSHMKKQKLKLKDEIHSMIFEYREK, 0.401 kcal/mol; as for HEFRDEISVLKANNPHFDKIFEKHNQLDDDIKTAEQQNASDAEVSHMKKQKLKLKDEIHSMIDEYREK, -0.032 kcal/mol. With HEFRDEISVLKANNPHFDKIFEKHNQLDDDIKTAEQQNASDAEVSHMKKQKLKLKDEIHSMIGEYREK, the “folding stability dG” value is -0.621 kcal/mol. As for HEFRDEISVLKANNPHFDKIFEKHNQLDDDIKTAEQQNASDAEVSHMKKQKLKLKDEIHSMIHEYREK, the figure is 0.728 kcal/mol; as for HEFRDEISVLKANNPHFDKIFEKHNQLDDDIKTAEQQNASDAEVSHMKKQKLKLKDEIHSMIIEYMEK, 0.762 kcal/mol.

In the case of HEFRDEISVLKANNPHFDKIFEKHNQLDDDIKTAEQQNASDAEVSHMKKQKLKLKDEIHSMIIEYSEK, the “folding stability dG” value is -0.498 kcal/mol. Consider HEFRDEISVLKANNPHFDKIFEKHNQLDDDIKTAEQQNASDAEVSHMKKQKLKLKDEIHSMIIEYVEK, for which the “folding stability dG” value is 0.348 kcal/mol. In the case of HEFRDEISVLKANNPHFDKIFEKHNQLDDDIKTAEQQNASDAEVSHMKKQKLKLKDEIHSMIIEYIEK, the “folding stability dG” value came out at 0.692 kcal/mol. As for HEFRDEISVLKANNPHFDKIFEKHNQLDDDIKTAEQQNASDAEVSHMKKQKLKLKDEIHSMIIEYCEK, the figure is 0.384 kcal/mol; as for HEFRDEISVLKANNPHFDKIFEKHNQLDDDIKTAEQQNASDAEVSHMKKQKLKLKDEIHSMIIEYFEK, 0.147 kcal/mol. As for HEFRDEISVLKANNPHFDKIFEKHNQLDDDIKTAEQQNASDAEVSHMKKQKLKLKDEIHSMIIEYWEK, the figure is 0.163 kcal/mol; as for HEFRDEISVLKANNPHFDKIFEKHNQLDDDIKTAEQQNASDAEVSHMKKQKLKLKDEIHSMIIEYYEK, 0.091 kcal/mol; as for HEFRDEISVLKANNPHFDKIFEKHNQLDDDIKTAEQQNASDAEVSHMKKQKLKLKDEIHSMIIEYHEK, 1.53 kcal/mol. As for HEFRDEISVLKANNPHFDKIFEKHNQLDDDIKTAEQQNASDAEVSHMKKQKLKLKDEIHSMIIEYLEK, the “folding stability dG” value is 1.07 kcal/mol. With HEFRDEISVLKANNPHFDKIFEKHNQLDDDIKTAEQQNASDAEVSHMKKQKLKLKDEIHSMIIEYQEK, the “folding stability dG” value was 0.328 kcal/mol. As for HEFRDEISVLKANNPHFDKIFEKHNQLDDDIKTAEQQNASDAEVSHMKKQKLKLKDEIHSMIIEYKEK, the figure is 0.404 kcal/mol; as for HEFRDEISVLKANNPHFDKIFEKHNQLDDDIKTAEQQNASDAEVSHMKKQKLKLKDEIHSMIIENREK, -0.975 kcal/mol; as for HEFRDEISVLKANNPHFDKIFEKHNQLDDDIKTAEQQNASDAEVSHMKKQKLKLKDEIHSMIIECREK, -0.316 kcal/mol. As for HEFRDEISVLKANNPHFDKIFEKHNQLDDDIKTAEQQNASDAEVSHMKKQKLKLKDEIHSMIIEEREK, the figure is -0.672 kcal/mol; as for HEFRDEISVLKANNPHFDKIFEKHNQLDDDIKTAEQQNASDAEVSHMKKQKLKLKDEIHSMIIEMREK, 0.384 kcal/mol. Regarding HEFRDEISVLKANNPHFDKIFEKHNQLDDDIKTAEQQNASDAEVSHMKKQKLKLKDEIHSMIIEIREK, the “folding stability dG” value amounted to 0.311 kcal/mol. As for HEFRDEISVLKANNPHFDKIFEKHNQLDDDIKTAEQQNASDAEVSHMKKQKLKLKDEIHSMIIEFREK, the figure is 1.01 kcal/mol; as for HEFRDEISVLKANNPHFDKIFEKHNQLDDDIKTAEQQNASDAEVSHMKKQKLKLKDEIHSMIIEAREK, 0.205 kcal/mol; as for HEFRDEISVLKANNPHFDKIFEKHNQLDDDIKTAEQQNASDAEVSHMKKQKLKLKDEIHSMIIEVREK, -0.888 kcal/mol.

For HEFRDEISVLKANNPHFDKIFEKHNQLDDDIKTAEQQNASDAEVSHMKKQKLKLKDEIHSMIIEQREK, the “folding stability dG” value was determined as 0.149 kcal/mol. As for HEFRDEISVLKANNPHFDKIFEKHNQLDDDIKTAEQQNASDAEVSHMKKQKLKLKDEIHSMIIEHREK, the figure is 0.113 kcal/mol; as for HEFRDEISVLKANNPHFDKIFEKHNQLDDDIKTAEQQNASDAEVSHMKKQKLKLKDEIHSMIIELREK, 0.386 kcal/mol. As for HEFRDEISVLKANNPHFDKIFEKHNQLDDDIKTAEQQNASDAEVSHMKKQKLKLKDEIHSMIIESREK, the “folding stability dG” value is -0.451 kcal/mol.

For the variant HEFRDEISVLKANNPHFDKIFEKHNQLDDDIKTAEQQNASDAEVSHMKKQKLKLKDEIHSMIIEWREK, the “folding stability dG” value was 0.961 kcal/mol.
